What all share (experiment): SPR
Assay [1] has as its target T1, full-length wild-type p97/VCP (UniProt P55072 1-806).
Assay [2] deals with full-length p97 R155H (MSP1 mutant) (UniProt P55072 1-806, R155H).
In assay [3] the target is full-length p97 A232E (MSP1 mutant) (UniProt P55072 1-806, A232E).
In assay [4] the target is T1, full-length wild-type p97/VCP. This is another data set of the same source.
The target is the same in assay [5]. This is another data set of the same source.

Read-outs that look alike come from different tables or passages of the source.

T1 sequence (P55072 whole entry): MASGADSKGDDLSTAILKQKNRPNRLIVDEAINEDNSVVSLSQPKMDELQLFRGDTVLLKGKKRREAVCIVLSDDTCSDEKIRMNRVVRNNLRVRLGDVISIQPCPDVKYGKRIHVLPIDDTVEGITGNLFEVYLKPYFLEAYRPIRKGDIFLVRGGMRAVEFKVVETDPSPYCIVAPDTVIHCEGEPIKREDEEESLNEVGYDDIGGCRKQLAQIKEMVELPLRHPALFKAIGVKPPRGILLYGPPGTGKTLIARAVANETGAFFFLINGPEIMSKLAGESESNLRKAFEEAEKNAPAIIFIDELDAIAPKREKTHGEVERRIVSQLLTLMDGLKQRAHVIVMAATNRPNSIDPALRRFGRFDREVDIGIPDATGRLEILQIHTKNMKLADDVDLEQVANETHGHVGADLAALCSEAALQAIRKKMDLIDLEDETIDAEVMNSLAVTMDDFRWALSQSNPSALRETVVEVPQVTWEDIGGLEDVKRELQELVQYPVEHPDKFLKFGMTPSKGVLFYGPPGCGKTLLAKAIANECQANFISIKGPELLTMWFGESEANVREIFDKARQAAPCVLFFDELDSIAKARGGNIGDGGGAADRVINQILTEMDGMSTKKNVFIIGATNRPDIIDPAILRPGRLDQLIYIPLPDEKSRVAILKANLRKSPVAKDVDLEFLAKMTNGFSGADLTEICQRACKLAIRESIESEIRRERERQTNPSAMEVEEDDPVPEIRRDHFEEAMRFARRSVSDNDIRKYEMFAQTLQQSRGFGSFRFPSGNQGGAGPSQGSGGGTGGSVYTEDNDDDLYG
full-length p97 A232E (MSP1 mutant), sequence (P55072 whole entry A232E): as the sequence (P55072 whole entry) above, with A232E counted along it
full-length p97 R155H (MSP1 mutant), sequence (P55072 whole entry R155H): as the sequence (P55072 whole entry) above, with R155H counted along it

B1: full-length human p47 (natural protein, UniProt Q9UNZ2 1-370, looked up)
chain: MAAERQEALREFVAVTGAEEDRARFFLESAGWDLQIALASFYEDGGDEDIVTISQATPSSVSRGTAPSDNRVTSFRDLIHDQDEDEEEEEGQRFYAGGSERSGQQIVGPPRKKSPNELVDDLFKGAKEHGAVAVERVTKSPGETSKPRPFAGGGYRLGAAPEEESAYVAGEKRQHSSQDVHVVLKLWKSGFSLDNGELRSYQDPSNAQFLESIRRGEVPAELRRLAHGGQVNLDMEDHRDEDFVKPKGAFKAFTGEGQKLGSTAPQVLSTSSPAQQAENEAKASSSILIDESEPTTNIQIRLADGGRLVQKFNHSHRISDIRLFIVDARPAMAATSFILMTTFPNKELADESQTLKEANLLNAVIVQRLT
Take B1: the results for the “KD, high-affinity site (two-site fit)” value in assay [1], in assay [2] and in assay [3] were 184 nM, 18 nM and 21 nM, respectively.

B2: p37 (natural protein, human, UniProt Q14CS0 1-331, looked up)
chain: MAEGGGPEPGEQERRSSGPRPPSARDLQLALAELYEDEVKCKSSKSNRPKATVFKSPRTPPQRFYSSEHEYSGLNIVRPSTGKIVNELFKEAREHGAVPLNEATRASGDDKSKSFTGGGYRLGSSFCKRSEYIYGENQLQDVQILLKLWSNGFSLDDGELRPYNEPTNAQFLESVKRGEIPLELQRLVHGGQVNLDMEDHQDQEYIKPRLRFKAFSGEGQKLGSLTPEIVSTPSSPEEEDKSILNAVVLIDDSVPTTKIQIRLADGSRLIQRFNSTHRILDVRNFIVQSRPEFAALDFILVTSFPNKELTDESLTLLEADILNTVLLQQLK
A word on the Kd: it is the constant that tells how readily two partners part at equilibrium. Read a low Kd as tighter binding. Consider B2, for which the dissociation constant Kd was found to be 19 nM in assay [4], 372 nM in assay [1] and 46 nM in assay [5].
